Tests used:
purified protein = substrate: N[C@@H](CO)C(=O)O; assay: purified protein; settings: ADP co-substrate, MgCl2, 50 mM Tris-HCl pH 7.5, 85 °C (standard assay; 20 mM each ADP and MgCl2)
[1] = substrate: Nc1ncnc2c1ncn2[C@@H]1O[C@H](COP(=O)(O)OP(=O)(O)O)[C@@H](O)[C@H]1O; assay: HPLC of AMP formed from ADP; type: biochemical, Thermococcus kodakarensis; settings: L-serine co-substrate (50 mM in standard assay), MgCl2, 50 mM Tris-HCl pH 7.5, 85 °C

B1: TK0378 protein; ADP-dependent Ser kinase (SerK; Tk-SerK) (Thermococcus kodakarensis KOD1) (protein)
chain: MGVEKVPKYDIPTKKVDYVFIELDKMKPHEQLVQKELEAFIESVTGSGIFWKPMLLAKVPGEDMYLIVDGHHRWAGLQKLGAKRAPSVILDYFSDDVKVYTWYPAFKGDLNEVVERLKKEGLEVIEDPEAEEKAERGEIAFALVGEKSFAIPGGLEEQKKVSKVLDEMSVEGKIELIYYGLKEDAREDMAKGEIDYVFIRKAPTKEEVMELVKRGEVYSPKTTRHVLPFNPDKIDVKLEELF
notes: full coding region in pET21a(+) (NdeI/EcoRI), no tag mentioned; E. coli BL21-CodonPlus(DE3)-RIL; heat treatment, Resource Q, Superdex 200
Q: With B1 as the protein, how does the Km (purified protein) read?
A: Its Km is 5.1 ± 0.5 mM.

Q: And the kcat (purified protein)?
A: The kcat was 218 ± 5 s⁻¹.

Q: And the Km [1]?
A: The Km was 2.4 ± 0.5 mM.

Q: And the kcat [1]?
A: The kcat was 204 ± 12 s⁻¹.

From publication PMC5120207, “An archaeal ADP-dependent serine kinase involved in cysteine biosynthesis and serine metabolism” (Nature Communications, 2016)
